Columns and labels:
[1] = biological target: T1, Wild type CD117 purified protein (human, UniProt P10721 26-520, limits assumed); assay: monovalent KD, CD117 titrated (FIGS. 73A-73E)
T1 construct: Protein used in BLI/kinetics and cryo-EM; also called wt CD117; Wt CD117

[2] = biological target: T1, Wild type CD117 purified protein; assay: summary Table 75 (repeats Table 71)
[3] = biological target: T2, Wild type CD117 expressed on cells (M07e cells, unedited human CD34+ HSPCs) (human, UniProt P10721 26-976); assay: summary Table 75 (repeats Table 73)
T2 construct: Endogenous receptor on cells; also called wtCD117; WT CD117

[4] = biological target: T2, Wild type CD117 expressed on cells …; assay: flow cytometry on M07e cells, AF647 secondary (FIG. 76A)
[5] = biological target: T3, CC128 variant of CD117 (Y259C + N260D) purified protein (human, UniProt P10721 26-520, limits assumed); assay: binding kinetics grade, FIGS. 55A-55C
T3 construct: also called CC128-edited CD117 as purified protein

[6] = biological target: CC200 variant of CD117 (S261G) purified protein (human, UniProt P10721 26-520, limits assumed); assay: binding kinetics grade, FIGS. 55A-55C
Sequence of CC200 variant of CD117 (S261G) purified protein (P10721 26-520 S261G limits assumed): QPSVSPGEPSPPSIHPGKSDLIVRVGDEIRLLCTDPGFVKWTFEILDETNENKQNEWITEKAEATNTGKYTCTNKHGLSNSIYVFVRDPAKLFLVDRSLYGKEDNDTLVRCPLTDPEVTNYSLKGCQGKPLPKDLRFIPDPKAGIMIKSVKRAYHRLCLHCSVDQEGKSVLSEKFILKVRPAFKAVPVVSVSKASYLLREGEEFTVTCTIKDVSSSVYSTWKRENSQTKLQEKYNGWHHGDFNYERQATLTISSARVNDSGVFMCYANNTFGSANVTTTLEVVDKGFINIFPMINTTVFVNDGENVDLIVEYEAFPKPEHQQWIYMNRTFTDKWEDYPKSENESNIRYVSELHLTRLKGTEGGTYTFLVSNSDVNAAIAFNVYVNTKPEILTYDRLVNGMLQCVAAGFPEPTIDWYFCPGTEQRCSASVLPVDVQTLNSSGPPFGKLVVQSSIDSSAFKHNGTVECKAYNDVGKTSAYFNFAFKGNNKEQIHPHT

T2 sequence (P10721 26-976 limits assumed): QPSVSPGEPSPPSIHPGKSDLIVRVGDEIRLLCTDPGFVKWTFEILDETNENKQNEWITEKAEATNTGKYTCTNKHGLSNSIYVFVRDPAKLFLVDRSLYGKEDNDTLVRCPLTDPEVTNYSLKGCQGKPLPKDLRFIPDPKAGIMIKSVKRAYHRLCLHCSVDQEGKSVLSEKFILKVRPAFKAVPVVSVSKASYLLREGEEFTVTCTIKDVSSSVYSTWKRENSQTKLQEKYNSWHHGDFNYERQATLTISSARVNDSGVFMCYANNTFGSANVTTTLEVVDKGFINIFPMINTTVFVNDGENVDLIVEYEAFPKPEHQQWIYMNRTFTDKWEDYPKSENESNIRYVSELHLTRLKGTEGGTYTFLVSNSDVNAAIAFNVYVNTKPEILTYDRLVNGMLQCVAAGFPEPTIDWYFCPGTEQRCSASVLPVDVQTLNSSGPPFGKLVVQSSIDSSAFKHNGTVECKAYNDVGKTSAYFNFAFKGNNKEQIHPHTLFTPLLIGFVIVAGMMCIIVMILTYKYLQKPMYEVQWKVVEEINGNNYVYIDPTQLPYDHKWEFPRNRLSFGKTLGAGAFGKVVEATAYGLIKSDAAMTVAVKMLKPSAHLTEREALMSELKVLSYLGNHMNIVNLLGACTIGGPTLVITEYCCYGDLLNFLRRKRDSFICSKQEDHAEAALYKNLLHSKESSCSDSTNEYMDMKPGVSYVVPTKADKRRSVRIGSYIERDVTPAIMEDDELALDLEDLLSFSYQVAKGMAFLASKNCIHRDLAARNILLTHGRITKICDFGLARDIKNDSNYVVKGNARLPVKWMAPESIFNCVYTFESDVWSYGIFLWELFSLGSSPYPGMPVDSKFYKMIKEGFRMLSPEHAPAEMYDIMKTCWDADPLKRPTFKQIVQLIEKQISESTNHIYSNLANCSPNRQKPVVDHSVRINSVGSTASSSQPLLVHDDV
T1 sequence (P10721 26-520 limits assumed): as the sequence (P10721 26-520 S261G limits assumed) above, with G236S counted along it
T3 sequence (P10721 26-520 Y259C/N260D limits assumed): as the sequence (P10721 26-520 S261G limits assumed) above, with Y234C, N235D, G236S counted along it

Row | Binder | Kd [1] | koff [1] | kon [1] | Kd [2] | EC50 [3] | EC50 [4] | binding result [5] | binding result [6]
1 | ABTx202 (antibody, human IgG1, V domains shown) VH: EVQLVESGGGLVQPGRSLRLSCAASGFTFDDYAMHWVRQAPGKGLEWVSGISWNSGTIGYADSVKGRFTSSRDNAKNSLYLEMNSLRAEDTALYYCAKDSPPGYCSSASCYGAFDIWGQGTMVTVSS VL: EIVMTQSPGTLSLSPGERATLSCRASQSVSSSYLAWYQQKPGQAPRLLIYGSSTRATGIPARFSGSGSGTEFALTISSLQSEDFAVYYCQQYNFWPYTFGQGTKVEIK | 2.42 nM | 0.00014 s⁻¹ | 57800 M⁻¹ s⁻¹ | 2.42 nM | 7.98 nM | 7.98 nM | – | –
2 | ABTx205 (antibody, human IgG1, V domains shown) VH: EVQLVESGGGLVQPGRSLRLSCAASGFTFDDYAMHWVRQAPGKGLEWVSGISWNSGTIGYADSVKGRFTNSRDNAKNSLYLEMNSLRAEDTALYYCAKDSPPGYCSSASCYGAFDIWGQGTMVTVSS VL: DIVMTQSPSFLSASVGDRVTITCRASQGISSYLAWYQQKPGKAPKLLIYAASTLQNGVPSRFSGSGSGTDFTLTITSLQPEDFATYYCQQSYSTPYTFGQGTKLEIK | 2.07 nM | 0.000117 s⁻¹ | 56600 M⁻¹ s⁻¹ | 2.07 nM | 7.48 nM | 7.48 nM | – | –
3 | ABTx203 (antibody, human IgG1, V domains shown) VH: EVQLVESGGGLVQPGRSLRLSCAASGFTFDDYAMHWVRQAPGKGLEWVSGISWNSGTIGYADSVKGRFTNSRDNAKNSLYLEMNSLRAEDTALYYCAKDWPSGFCSSAYCYGAFDIWGQGTMVTVSS VL: DIVMTQSPSFLSASVGDRVTITCRASQGISSYLAWYQQKPGKAPKLLIYAASTLQNGVPSRFSGSGSGTDFTLTITSLQPEDFATYYCQQSYSTPYTFGQGTKLEIK | 6.62 nM | 0.000643 s⁻¹ | 97100 M⁻¹ s⁻¹ | 6.62 nM | 5.56 nM | 5.56 nM | – | –
4 | ABTx206 (antibody, human IgG1, V domains shown) VH: EVQLVESGGGLVQPGRSLRLSCAASGFTFDDYAMHWVRQAPGKGLEWVSGISWNSGTIGYADSVKGRFTNSRDNAKNSLYLEMNSLRAEDTALYYCAKDSPPGYCSSASCYGAFDIRGQGTMVTVSS VL: DIVMTQSPSFLSASVGDRVTITCRASQGISSYLAWYQQKPGKAPKLLIYAASTLQNGVPSRFSGSGSGTDFTLTITSLQPEDFATYYCQQSYSTPYTFGQGTKLEIK | 1.26 nM | 5.07e-05 s⁻¹ | 40300 M⁻¹ s⁻¹ | 1.26 nM | 14.2 nM | 14.2 nM | – | –
5 | ABTx270 (antibody, human IgG1, kappa, V domains shown) VH: QVQLVQSGAAVKKPGESLKISCKGSGYRFTSYWIGWVRQMPGKGLEWMGIIYPGDSDTRYSPSFQGQVTISAGKSISTAYLQWSSLKASDTAMYYCARHGRGYDAYEGAFDIWGQGTMVTVSS VL: AIQLTQSPSSLSASVGDRVTITCRASQGISSALAWYQQKPGKAPKLLIYDASSLESGVPSRFSGSGSGTDFTLTISSLQPEDFATYYCQQVRSYPLTFGGGTKVEIKR | – | – | – | – | – | – | no binding | no binding
6 | ABTx272 (antibody, human IgG1, kappa, V domains shown) VH: QVQLVQSGAAVKKPGESLKISCKGSGYRFTSYWIGWVRQMPGKGLEWMGIIYPGDSDTKYSPSFQGQVTISAGKSISTAYLQWSSLKASDTAMYYCARHGRGYDGYDGAFDIWGQGTMVTVSS VL: AIQLTQSPSSLSASVGDRVTITCRASQGISSALAWYQQKPGKAPKLLIYDASSLESGVPSRFSGSGSGTDFTLTISSLQPEDFATYYCQQVRSYPLTFGGGTKVEIKR | – | – | – | – | – | – | no binding | no binding
7 | ABTx273 (antibody, human IgG1, kappa, V domains shown) VH: QVQLVQSGAAVKKPGESLKISCKGSGYRFTSYWIGWVRQMPGKGLEWMGIIYPGDSDTRYSPSFQGQVTISAGKSISTAYLQWSSLKASDTAMYYCARHGRGYDGYEGAFDIWGQGTMVTVSS VL: AIQLTQSPSSLSASVGDRVTITCRASQGISSALAWYQQKPGKAPKLLIYDASSLESGVPSRFSGSGSGTDFTLTISSLQPEDFATYYCQQFRSYPLTFGGGTKVEIKR | – | – | – | – | – | – | no binding | no binding
